Measured values taken from US20240254248A1 (JIANGSU HENGRUI MEDICINE, published 2024).
Read-outs that look alike come from different tables or passages of the source. Blank lines part the entries; values can stand above or below the binder they belong to.

Columns and labels:
[1] = molecular target: T1, human CD40 (hCD40) (human, UniProt P25942 21-193); test: ELISA blocking of hCD40/hCD40L binding
[2] = molecular target: T2, CD40 on HEK293-CD40 cells; test: binding to HEK293-CD40 cells
T2 construct: whole, on cells
T2 sequence (P25942 21-277): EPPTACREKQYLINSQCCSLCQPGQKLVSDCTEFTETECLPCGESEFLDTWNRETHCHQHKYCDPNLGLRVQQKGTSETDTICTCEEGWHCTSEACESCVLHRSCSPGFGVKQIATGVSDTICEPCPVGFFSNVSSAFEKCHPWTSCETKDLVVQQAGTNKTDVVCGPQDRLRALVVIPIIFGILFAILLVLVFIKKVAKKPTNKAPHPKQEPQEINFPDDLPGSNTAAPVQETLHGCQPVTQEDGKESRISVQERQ

[3] = molecular target: T1, human CD40 (hCD40); test: ELISA blocking of hCD40/hCD40L binding; remark: listed apart in the source
[4] = molecular target: T2, CD40 on HEK293-CD40 cells; test: binding to HEK293-CD40 cells; remark: listed apart in the source

T1 sequence (P25942 21-193 limits assumed): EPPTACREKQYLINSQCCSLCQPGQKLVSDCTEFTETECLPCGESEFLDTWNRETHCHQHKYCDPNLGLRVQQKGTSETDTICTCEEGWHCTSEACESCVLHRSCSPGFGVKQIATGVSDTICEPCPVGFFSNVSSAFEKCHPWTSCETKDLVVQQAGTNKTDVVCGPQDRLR

IC50 [1]: 0.122 µg/mL | EC50 [2]: 0.0333 µg/mL
B1: human-murine chimeric antibody 9E5-C (antibody, IgG1, V domains shown)
VH: QVQLQQPGADLVKPGASVKMSCKASGYILTTYWITWVKQRPGQGLEWIGDIHPGSGSTKYNEKFKSKATLTVDTSSSTAYMQLTRLSSEDSAVYYCARRDYWGQGTTLTVSS
VL: DVLMTQSPLSLPVSLGDQASISCRSSQNIVNSQGNTYLEWYLQKPGESPKLLIYKVTNRFSGVPDRFSGSGSGTDFTLKISRVEAEDLGVYYCFQASLVPWTFGGGTKLEIK
notes: also called 9E5 chimeric antibody

IC50 [3]: 0.308 µg/mL | EC50 [4]: 0.14 µg/mL
B2: humanized antibody hu9E5 (H1c heavy chain and L1a light chain) (antibody, human IgG1, kappa, V domains shown)
VH: QVQLVQSGAEVKKPGASVKVSCKASGYILTTYWITWVRQAPGQGLEWMGDIHPGSGSTKYNEKFKSRVTLTVDTSISTAYMELSRLRSEDTAVYYCARRDYWGQGTTVTVSS
VL: DIVMTQSPLSLPVTPGEPASISCRSSQNIVNSQGNTYLEWYLQKPGQSPQLLIYKVTNRFSGVPDRFSGSGSGTDFTLKISRVEAEDVGVYYCFQASLVPWTFGGGTKVEIKR
notes: also called Hu9E5-25
